Measured values taken from patent US20200087392A1 (Novartis, published 2020).

Target: T1, human β-klotho (human, UniProt Q86Z14 52-997, limits assumed)
T1 construct: Antigen of the SET assay; also called beta-klotho
T1 sequence: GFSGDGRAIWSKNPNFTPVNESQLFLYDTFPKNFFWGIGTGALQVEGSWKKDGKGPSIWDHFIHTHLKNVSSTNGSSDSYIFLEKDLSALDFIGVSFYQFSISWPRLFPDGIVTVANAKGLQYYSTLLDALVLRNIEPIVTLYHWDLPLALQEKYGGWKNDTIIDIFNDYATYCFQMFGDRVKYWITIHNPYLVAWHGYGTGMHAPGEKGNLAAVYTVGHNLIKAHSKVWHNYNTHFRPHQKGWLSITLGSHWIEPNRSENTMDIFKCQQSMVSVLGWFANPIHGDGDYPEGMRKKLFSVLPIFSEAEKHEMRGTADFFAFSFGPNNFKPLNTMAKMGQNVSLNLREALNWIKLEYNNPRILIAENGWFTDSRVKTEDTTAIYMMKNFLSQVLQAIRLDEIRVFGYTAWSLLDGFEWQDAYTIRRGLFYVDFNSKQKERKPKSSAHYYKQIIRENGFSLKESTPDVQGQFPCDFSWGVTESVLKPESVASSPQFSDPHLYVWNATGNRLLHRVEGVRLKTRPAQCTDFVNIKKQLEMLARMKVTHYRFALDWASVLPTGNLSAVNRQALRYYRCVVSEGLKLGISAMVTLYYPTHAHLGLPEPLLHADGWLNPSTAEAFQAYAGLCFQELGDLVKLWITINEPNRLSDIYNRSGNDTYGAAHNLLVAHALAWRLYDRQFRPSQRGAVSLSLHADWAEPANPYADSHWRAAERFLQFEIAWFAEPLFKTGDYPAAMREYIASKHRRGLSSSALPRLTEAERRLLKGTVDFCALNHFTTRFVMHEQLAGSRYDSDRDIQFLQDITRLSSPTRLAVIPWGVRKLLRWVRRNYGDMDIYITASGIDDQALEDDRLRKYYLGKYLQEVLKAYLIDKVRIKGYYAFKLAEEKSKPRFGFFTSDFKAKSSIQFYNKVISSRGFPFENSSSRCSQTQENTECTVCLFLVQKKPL
Test: solution equilibrium titration (SET)

B1: NOV001 (antibody, human IgG1, kappa, L234A L235A, V domains shown)
VH: QVQLVQSGAEVKKPGSSVKVSCKASGYTFTDYYINWVRQAPGQGLEWMGRIHPGSGNTYYNEKFQGRVTLTADKSTSTAYMELSSLRSEDTAVYYCAILLLRSYGMDDWGQGTTVTVSS
VL: DVVMTQTPLSLSVTPGQPASISCKSSQSIVHSSGNTYLEWYLQKPGQSPQLLIYKVSNRFSGVPDRFSGSGSGTDFTLKISRVEAEDVGVYYCFQGSHIPYTFGQGTKLEIKR
notes: also called IgG1 LALA version of NOV003
Q: Which Kd does the source give for B1 here?
A: ~0.042 nM
